The values below are quoted from earlier work in PMC3486867.

The target of this series is Asp408 (UniProt position 408, GLLVDDAIVVV). In words: chemical modification (inferred from the title of ref 54: site-directed mutagenesis and carbodiimide labeling).

On to “Multidrug transporter AcrB (not stated (Escherichia coli inferred))”, for which the pKa (usually the negative logarithm of the acid dissociation constant) is given as 7.4.
